From PMC9468158, “Transmembrane helices mediate the formation of a stable ternary complex of b5R, cyt b5, and SCD1” (Communications Biology, 2022)

Legend:
Details in all cases: both partners purified
[1] = target: T1, full-length b5R, released from the linker-cleaved cyt b5-b5R fusion (mouse, UniProt Q9DCN2 1-301); assay: SEC; TM mutants in the linker-cleavable fusions, purified and cleaved by TEV protease; SRE-10C SEC-300 (Sepax) on HPLC, FPLC buffer, 0.75 mL/min; heme absorbance (413 nm by the results, 423 nm by the methods) gives the ratio of heterodimer to monomeric cyt b5
T1 construct: surmised: cleavage of the linker ENLYFQ/G leaves a G at the N-terminus; no extra residue after the C-terminus of b5R
T1 sequence (looked up): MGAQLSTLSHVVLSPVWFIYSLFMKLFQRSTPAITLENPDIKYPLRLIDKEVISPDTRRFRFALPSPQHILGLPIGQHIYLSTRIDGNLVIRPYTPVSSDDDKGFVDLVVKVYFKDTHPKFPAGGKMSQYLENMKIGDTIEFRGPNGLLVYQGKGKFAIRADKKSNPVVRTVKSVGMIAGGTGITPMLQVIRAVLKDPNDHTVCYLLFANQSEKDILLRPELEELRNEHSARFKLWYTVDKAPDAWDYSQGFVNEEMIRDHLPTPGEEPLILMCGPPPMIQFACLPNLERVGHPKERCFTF

soluble b5R (24-301) = target: T2, soluble b5R (24-301) (mouse, UniProt Q9DCN2 24-301); assay: BLI; Octet, 30 °C, 1000 rpm; soluble cyt b5 coupled to AR2G (amine reactive) biosensors; analytes soluble b5R or SCD1 at 5, 2.5 and 1.25 µM; FPLC buffer (20 mM HEPES pH 7.5, 150 mM NaCl, 1 mM DDM) plus 0.1% BSA; KD from kon and koff of 1-exponential fits
T2 construct: source: E. coli BL21(DE3) (pET vector), purified (procedures similar to those for the full-length proteins)
T2 sequence (looked up): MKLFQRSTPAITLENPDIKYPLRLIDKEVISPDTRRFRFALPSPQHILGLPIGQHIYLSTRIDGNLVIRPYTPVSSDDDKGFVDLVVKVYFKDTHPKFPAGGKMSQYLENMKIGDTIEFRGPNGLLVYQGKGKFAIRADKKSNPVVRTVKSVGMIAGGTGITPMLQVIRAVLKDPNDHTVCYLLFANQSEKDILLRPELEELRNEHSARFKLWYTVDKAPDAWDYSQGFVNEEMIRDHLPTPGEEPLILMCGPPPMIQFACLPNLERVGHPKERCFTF

[2] = target: T3, SCD1, individual purified protein (mouse, UniProt P13516 1-355); assay: as above
T3 construct: stearoyl-CoA desaturase-1 (SCD1), mouse, UniProt P13516; surmised: ENLYFQ of the TEV site is left at the C-terminus; source: HEK 293S (BacMam), purified (GFP nanobody resin, released by TEV protease, SEC in 1 mM DDM); not shown: GFP, C-terminal, cleaved
T3 sequence (looked up): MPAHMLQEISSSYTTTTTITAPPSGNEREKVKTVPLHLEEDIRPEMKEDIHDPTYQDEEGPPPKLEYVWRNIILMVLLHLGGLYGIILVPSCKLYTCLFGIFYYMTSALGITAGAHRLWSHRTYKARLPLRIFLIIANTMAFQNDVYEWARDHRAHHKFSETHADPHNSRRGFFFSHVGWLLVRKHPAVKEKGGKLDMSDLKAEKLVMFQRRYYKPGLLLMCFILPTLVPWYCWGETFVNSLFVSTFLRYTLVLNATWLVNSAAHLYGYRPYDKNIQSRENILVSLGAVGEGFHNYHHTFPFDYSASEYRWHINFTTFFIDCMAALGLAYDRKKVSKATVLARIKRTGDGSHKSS

[3] = target: T4, SCD1, released from the linker-cleaved SCD1-cyt b5-b5R fusions (mouse, UniProt P13516 1-355); assay: SEC; ternary fusion SCD1-cyt b5-b5R purified, linkers cleaved by TEV protease, Superdex 200 10/300 GL in 20 mM HEPES pH 7.5, 150 mM NaCl, 1 mM DDM; three proteins in the sample
T4 construct: stearoyl-CoA desaturase-1 (SCD1), mouse, UniProt P13516; stands for the SCD1 chain of the ternary fusion of the full-length proteins and of the sample with soluble cyt b5 and b5R; surmised: linker residues are left after TEV cleavage; not shown: GFP, N-terminal, cleaved
T4 sequence (looked up): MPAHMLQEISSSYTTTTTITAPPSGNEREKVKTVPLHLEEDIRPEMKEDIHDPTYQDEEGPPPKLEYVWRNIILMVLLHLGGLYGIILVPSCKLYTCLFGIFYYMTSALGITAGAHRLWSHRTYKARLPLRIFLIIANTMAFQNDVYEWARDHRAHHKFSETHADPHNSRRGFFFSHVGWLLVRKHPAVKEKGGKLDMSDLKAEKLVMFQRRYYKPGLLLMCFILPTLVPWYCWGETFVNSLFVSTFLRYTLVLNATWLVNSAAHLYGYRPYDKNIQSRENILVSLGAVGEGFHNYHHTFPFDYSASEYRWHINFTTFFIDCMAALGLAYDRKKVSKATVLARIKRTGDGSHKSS

| Binder | binding result [1] | Kd (soluble b5R (24-301)) | Kd [2] | also measured |
| --- | --- | --- | --- | --- |
| cyt b5 L121W, released from the linker-cleaved cyt b5-b5R-TEV chimera (natural protein, mouse, UniProt P56395 1-134, looked up, cytochrome b5, mouse, UniProt P56395; as m6 with the mutation; source: High Five cells (Bac-to-Bac), purified as a fusion with b5R, cleaved by TEV protease) MAGQSDKDVKYYTLEEIQKHKDSKSTWVILHHKVYDLTKFLEEHPGGEEVLREQAGGDATENFEDVGHSTDARELSKTYIIGELHPDDRSKIAKPSDTLITTVESNSSWWTNWVIPAISAWAVALMYRLYMAED | binds |  |  |  |
| cyt b5 Y127A, released from the linker-cleaved cyt b5-b5R-TEV chimera (natural protein, mouse, UniProt P56395 1-134, looked up, cytochrome b5, mouse, UniProt P56395; as m6 with the mutation; source: High Five cells (Bac-to-Bac), purified as a fusion with b5R, cleaved by TEV protease) MAGQSDKDVKYYTLEEIQKHKDSKSTWVILHHKVYDLTKFLEEHPGGEEVLREQAGGDATENFEDVGHSTDARELSKTYIIGELHPDDRSKIAKPSDTLITTVESNSSWWTNWVIPAISALAVALMARLYMAED | binds |  |  |  |
| cyt b5 M126A, released from the linker-cleaved cyt b5-b5R-TEV chimera (natural protein, mouse, UniProt P56395 1-134, looked up, cytochrome b5, mouse, UniProt P56395; as m6 with the mutation; source: High Five cells (Bac-to-Bac), purified as a fusion with b5R, cleaved by TEV protease) MAGQSDKDVKYYTLEEIQKHKDSKSTWVILHHKVYDLTKFLEEHPGGEEVLREQAGGDATENFEDVGHSTDARELSKTYIIGELHPDDRSKIAKPSDTLITTVESNSSWWTNWVIPAISALAVALAYRLYMAED | binds |  |  |  |
| cyt b5 S119A, released from the linker-cleaved cyt b5-b5R-TEV chimera (natural protein, mouse, UniProt P56395 1-134, looked up, cytochrome b5, mouse, UniProt P56395; as m6 with the mutation; source: High Five cells (Bac-to-Bac), purified as a fusion with b5R, cleaved by TEV protease) MAGQSDKDVKYYTLEEIQKHKDSKSTWVILHHKVYDLTKFLEEHPGGEEVLREQAGGDATENFEDVGHSTDARELSKTYIIGELHPDDRSKIAKPSDTLITTVESNSSWWTNWVIPAIAALAVALMYRLYMAED | binds |  |  |  |
| cyt b5 V123W, released from the linker-cleaved cyt b5-b5R-TEV chimera (natural protein, mouse, UniProt P56395 1-134, looked up, cytochrome b5, mouse, UniProt P56395; as m6 with the mutation; source: High Five cells (Bac-to-Bac), purified as a fusion with b5R, cleaved by TEV protease) MAGQSDKDVKYYTLEEIQKHKDSKSTWVILHHKVYDLTKFLEEHPGGEEVLREQAGGDATENFEDVGHSTDARELSKTYIIGELHPDDRSKIAKPSDTLITTVESNSSWWTNWVIPAISALAWALMYRLYMAED | binds |  |  |  |
| cyt b5 R128A, released from the linker-cleaved cyt b5-b5R-TEV chimera (natural protein, mouse, UniProt P56395 1-134, looked up, cytochrome b5, mouse, UniProt P56395; as m6 with the mutation; source: High Five cells (Bac-to-Bac), purified as a fusion with b5R, cleaved by TEV protease) MAGQSDKDVKYYTLEEIQKHKDSKSTWVILHHKVYDLTKFLEEHPGGEEVLREQAGGDATENFEDVGHSTDARELSKTYIIGELHPDDRSKIAKPSDTLITTVESNSSWWTNWVIPAISALAVALMYALYMAED |  |  |  | percent dissociation of the complex [1]: ~40% |
| full-length b5R, released from the linker-cleaved SCD1-cyt b5-b5R fusion (enzyme, mouse, UniProt Q9DCN2 1-301, looked up, no extra residue after the C-terminus of b5R; surmised: a G is left at the N-terminus after TEV cleavage) MGAQLSTLSHVVLSPVWFIYSLFMKLFQRSTPAITLENPDIKYPLRLIDKEVISPDTRRFRFALPSPQHILGLPIGQHIYLSTRIDGNLVIRPYTPVSSDDDKGFVDLVVKVYFKDTHPKFPAGGKMSQYLENMKIGDTIEFRGPNGLLVYQGKGKFAIRADKKSNPVVRTVKSVGMIAGGTGITPMLQVIRAVLKDPNDHTVCYLLFANQSEKDILLRPELEELRNEHSARFKLWYTVDKAPDAWDYSQGFVNEEMIRDHLPTPGEEPLILMCGPPPMIQFACLPNLERVGHPKERCFTF |  |  |  | binding result [3]: binds |

More lines, main results first:

| binding result [1] | Kd (soluble b5R (24-301)) | Kd [2] | Binder | also measured |
| --- | --- | --- | --- | --- |
|  | 2.71 µM | 4.42 µM | soluble cyt b5 (4-89), wild type (domain or fragment, mouse, UniProt P56395 4-89, looked up, cytochrome b5, mouse, UniProt P56395, soluble domain, residues 4-89; coupled by amines to AR2G biosensors; also called cyt b5 (WT); source: E. coli BL21(DE3) (pET vector), purified (procedures similar to those for the full-length proteins)) QSDKDVKYYTLEEIQKHKDSKSTWVILHHKVYDLTKFLEEHPGGEEVLREQAGGDATENFEDVGHSTDARELSKTYIIGELHPDDR |  |
|  | 8.45 µM | 8.23 µM | soluble cyt b5 (4-89) E49A (domain or fragment, mouse, UniProt P56395 4-89, looked up, cytochrome b5, mouse, UniProt P56395, soluble domain, residues 4-89; coupled by amines to AR2G biosensors; also called cyt b5 (E49A); source: E. coli BL21(DE3) (pET vector), purified (procedures similar to those for the full-length proteins)) QSDKDVKYYTLEEIQKHKDSKSTWVILHHKVYDLTKFLEEHPGGEAVLREQAGGDATENFEDVGHSTDARELSKTYIIGELHPDDR |  |
|  | 9.63 µM | 11.2 µM | soluble cyt b5 (4-89) E43A (domain or fragment, mouse, UniProt P56395 4-89, looked up, cytochrome b5, mouse, UniProt P56395, soluble domain, residues 4-89; coupled by amines to AR2G biosensors; also called cyt b5 (E43A); source: E. coli BL21(DE3) (pET vector), purified (procedures similar to those for the full-length proteins)) QSDKDVKYYTLEEIQKHKDSKSTWVILHHKVYDLTKFLEAHPGGEEVLREQAGGDATENFEDVGHSTDARELSKTYIIGELHPDDR |  |
